The record followed here is publication PMC10404681, “Intrinsic catalytic properties of histone H3 lysine-9 methyltransferases preserve monomethylation levels under low S-adenosylmethionine” (The Journal of Biological Chemistry, 2023).

The term Kd denotes the equilibrium constant for the complex coming apart. Low readings indicate a tighter complex, high ones a looser complex.

What all share (assay): fluorescence polarisation; enzyme titrated (0-10 uM, monomeric) against a fixed 20-100 nM of N-terminus 5-FAM labeled H3(1-17) peptide, with 100 uM SAH; 50 mM HEPES pH 7.9, 2 mM MgCl2, 0.5 mM DTT, 0.1 mM AEBSF, 0.01% Triton X-100, 10% glycerol; 10 min at 25 °C; one site specific binding fit
What all share (conditions): both partners purified

Experiment [1] deals with T1, H. sapiens EHMT1 catalytic subunit (amino acids 982 to 1266) (H. sapiens, UniProt Q9H9B1 982-1266).
T1 construct: EHMT1 (G9a-like protein, KMT1D), human, catalytic subunit, amino acids 982 to 1266; UniProt entry Q9H9B1 is printed for human EHMT1; Plasmid from Addgene (gift of Cheryl Arrowsmith); The tag is surmised from the nickel column purification; also called G9a-like protein; GLP; source: Rosetta E. coli, purified (HisTrap FF nickel column, dialysis)
T1 sequence (looked up): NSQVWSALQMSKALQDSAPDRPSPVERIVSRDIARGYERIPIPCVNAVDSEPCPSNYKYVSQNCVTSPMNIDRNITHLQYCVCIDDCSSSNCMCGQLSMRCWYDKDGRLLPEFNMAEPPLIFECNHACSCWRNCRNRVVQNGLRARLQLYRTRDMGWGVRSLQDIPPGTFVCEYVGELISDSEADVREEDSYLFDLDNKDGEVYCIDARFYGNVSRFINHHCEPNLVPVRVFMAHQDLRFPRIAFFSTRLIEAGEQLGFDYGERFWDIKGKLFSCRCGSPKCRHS

Experiment [2] concerns the target T2, H. sapiens EHMT2 catalytic subunit (amino acids 913 to 1193) (H. sapiens, UniProt Q96KQ7 913-1193).
T2 construct: EHMT2 (G9a, KMT1C), human, catalytic subunit, amino acids 913 to 1193; Plasmid provided by the laboratory of Peter W. Lewis; The tag is surmised from the nickel column purification; also called G9a; KMT1C; source: Rosetta E. coli, purified (HisTrap FF nickel column, dialysis)
T2 sequence (looked up): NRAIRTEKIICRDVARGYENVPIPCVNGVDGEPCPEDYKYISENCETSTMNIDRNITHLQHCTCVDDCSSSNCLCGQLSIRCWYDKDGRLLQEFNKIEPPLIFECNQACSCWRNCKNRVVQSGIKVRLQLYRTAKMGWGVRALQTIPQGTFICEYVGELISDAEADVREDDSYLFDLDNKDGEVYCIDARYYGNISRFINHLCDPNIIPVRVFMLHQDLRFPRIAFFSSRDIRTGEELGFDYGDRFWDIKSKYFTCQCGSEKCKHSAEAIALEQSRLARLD

In experiment [3] the target is T3, SUV39H1, full length with N-terminal maltose-binding protein (UniProt O43463 1-412).
T3 construct: SUV39H1 (KMT1A), full length; Plasmid generated for this study; The His tag is surmised from the nickel column purification; also called KMT1A; source: Rosetta E. coli, purified (HisTrap FF nickel column, dialysis)
T3 sequence (looked up): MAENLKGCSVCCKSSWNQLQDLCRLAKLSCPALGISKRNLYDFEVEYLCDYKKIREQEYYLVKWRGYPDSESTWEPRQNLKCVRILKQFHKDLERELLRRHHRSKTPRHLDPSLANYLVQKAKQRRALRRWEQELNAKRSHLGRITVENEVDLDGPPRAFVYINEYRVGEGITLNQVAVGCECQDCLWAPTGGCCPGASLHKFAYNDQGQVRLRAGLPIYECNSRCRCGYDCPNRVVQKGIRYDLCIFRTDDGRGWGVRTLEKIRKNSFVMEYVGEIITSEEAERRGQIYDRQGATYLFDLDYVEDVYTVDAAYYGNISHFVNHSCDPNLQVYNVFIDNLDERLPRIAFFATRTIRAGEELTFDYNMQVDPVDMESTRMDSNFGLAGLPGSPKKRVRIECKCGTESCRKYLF

Experiment [4] addresses T4, H. sapiens SUV39H2 catalytic subunit (amino acids 162 to 410) (H. sapiens, UniProt Q9H5I1 162-410).
T4 construct: Plasmid from Addgene (gift of Cheryl Arrowsmith); The tag is surmised from the nickel column purification; also called KMT1B; source: Rosetta E. coli, purified (HisTrap FF nickel column, dialysis)

*: point of attachment. 5FAM = O=C1OC2(c3ccc(O)cc3Oc3cc(O)ccc32)c2ccc(C(=O)*)cc21

T4 sequence (Q9H5I1 162-410): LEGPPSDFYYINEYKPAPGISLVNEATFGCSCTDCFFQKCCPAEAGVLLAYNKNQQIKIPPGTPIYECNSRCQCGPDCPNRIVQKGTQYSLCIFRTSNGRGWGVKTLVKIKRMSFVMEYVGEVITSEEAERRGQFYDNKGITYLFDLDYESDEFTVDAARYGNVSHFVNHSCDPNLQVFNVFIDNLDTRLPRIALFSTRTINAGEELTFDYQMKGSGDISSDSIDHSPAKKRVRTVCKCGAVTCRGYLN

B1: H3(1-17) K9 monomethylated peptide, N-terminus 5-FAM labeled (peptide, UniProt P68431 2-18, looked up)
peptide: ARTKQTARKSTGGKAPR
modifications: 5-Carboxyfluorescein (5-FAM) on the N-terminus; monomethyl-lysine at 9
notes: Histone H3, residues 1-17, lysine 9 monomethylated; Made on Rink-amide resin, so the C-terminus is probably an amide (surmised); also called H3K9me1; source: synthetic peptide (solid phase synthesis on Rink-amide ChemMatrix resin, C18-HPLC-purified)
B1: the Kd in experiment [1] was 74 ± 10 nM; in experiment [2], 26 ± 1 nM; in experiment [3], 750 ± 47 nM; in experiment [4], 694 ± 98 nM.

B2: H3(1-17) K9 dimethylated peptide, N-terminus 5-FAM labeled (peptide, UniProt P68431 2-18, looked up)
peptide: ARTKQTARKSTGGKAPR
modifications: 5-Carboxyfluorescein (5-FAM) on the N-terminus; dimethyl-lysine at 9
notes: Histone H3, residues 1-17, lysine 9 dimethylated; Made on Rink-amide resin, so the C-terminus is probably an amide (surmised); also called H3K9me2; source: synthetic peptide (solid phase synthesis on Rink-amide ChemMatrix resin, C18-HPLC-purified)
As for B2, the Kd was 124 ± 24 nM in experiment [1], 40 ± 3 nM in experiment [2], 479 ± 123 nM in experiment [3] and 929 ± 573 nM in experiment [4].

B3: H3(1-17) K9 unmodified peptide, N-terminus 5-FAM labeled (peptide, UniProt P68431 2-18, looked up)
peptide: 5FAM-ARTKQTARKSTGGKAPR-NH2
notes: Histone H3, residues 1-17, lysine 9 unmodified; Made on Rink-amide resin, so the C-terminus is probably an amide (surmised); Residues 1-17 are the same in H3.1, H3.2 and H3.3; also called H3K9un; source: synthetic peptide (solid phase synthesis on Rink-amide ChemMatrix resin, C18-HPLC-purified)
Regarding B3, the dissociation constant Kd worked out at 29 ± 1 nM in experiment [1], 16 ± 0.4 nM in experiment [2], 499 ± 45 nM in experiment [3] and 1080 ± 226 nM in experiment [4].
